± gives the standard error. For some of these results: Variants at the floor of the assay were thinned out.
B1: glmS ribozyme (parent)
chain: AUAAAAGCGCCAGAACUACAGAAAUGUAGUUGACGAGGAGGAGGUUUAUCGAAUUUUCGGCGGAUGCCUCCAAA

What was measured:
Settings in all cases: with glucosamine-6-phosphate
[1] = variants of: B1; experiment: kcat; higher = faster cleavage; RNA array
Summary of the method: (§1)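 Over ~14 h at 37 °C, tiles were imaged as glucosamine-6-phosphate (40 μM to 10 mM) in HEPES/KCl/Mg(OAc)2 buffer flowed across sequenced MiSeq chips. The chips carried barcoded ribozyme variants transcribed in situ by E. coli RNA polymerase and tracked with a hybridised Cy3 probe. After normalisation to baseline and to non-cleaving reference variants, one- or two-exponential decay fits of per-tile medians gave kobs. kcat and KM followed from weighted Michaelis–Menten fits across concentrations.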

[2] = variants of: B1; experiment: KM; higher = weaker cofactor use; RNA array
Summary of the method: as §1

[3] = variants of: B1; experiment: self-cleavage kobs at 40 uM GlcN6P; higher = faster cleavage; RNA array
Summary of the method: as §1

[4] = variants of: B1; experiment: self-cleavage kobs at 160 uM GlcN6P; higher = faster cleavage; RNA array
Summary of the method: as §1

[5] = variants of: B1; experiment: self-cleavage kobs at 640 uM GlcN6P; higher = faster cleavage; RNA array
Summary of the method: as §1

[6] = variants of: B1; experiment: self-cleavage kobs at 2500 uM GlcN6P; higher = faster cleavage; RNA array
Summary of the method: as §1

[7] = variants of: B1; experiment: self-cleavage kobs at 10000 uM GlcN6P; higher = faster cleavage; RNA array
Summary of the method: as §1

Variant	kcat [1] [s⁻¹]	KM [2] [mM]	self-cleavage kobs at 40 uM GlcN6P [3] [s⁻¹]	self-cleavage kobs at 160 uM GlcN6P [4] [s⁻¹]	self-cleavage kobs at 640 uM GlcN6P [5] [s⁻¹]	self-cleavage kobs at 2500 uM GlcN6P [6] [s⁻¹]	self-cleavage kobs at 10000 uM GlcN6P [7] [s⁻¹]
A12U A14C	0.00505 ± 0.0013	1.63 ± 0.56	0.000142 ± 1.3e-05	0.000429 ± 6.9e-05	0.00117 ± 0.00016	0.00261 ± 0.00038	0.00546 ± 0.00066
A12U A14U	0.00461 ± 0.0012	2 ± 0.75	0.00011 ± 1.2e-05	0.000269 ± 5.6e-05	0.00119 ± 0.00018	0.00188 ± 0.00031	0.00449 ± 0.00046
A12G A39G	0.0017 ± 0.00036	4.96 ± 1.5		3.92e-05 ± 9.9e-06	0.00022 ± 2.9e-05	0.000622 ± 9e-05	0.00109 ± 0.00014
A12G A39U	0.000523 ± 9.7e-05	4.35 ± 1.4			6.01e-05 ± 1.2e-05	0.000246 ± 4.1e-05	0.00035 ± 4.6e-05
A12U A39C U56G	0.00242 ± 0.00054	3.43 ± 1	2.75e-05 ± 1e-05	0.000109 ± 1.8e-05	0.000287 ± 0.00011	0.00138 ± 0.00027	0.00168 ± 0.00031
A12G G40A	0.000633 ± 0.00014	4.04 ± 1.3		1.6e-05 ± 7.3e-06	9.61e-05 ± 8.9e-06	0.000218 ± 2.3e-05	0.000486 ± 6.3e-05
A12U C50U C67G	4.36e-05 ± 2.1e-05				6.16e-05 ± 2.1e-05		
A12G A52G A53G	2.52e-05 ± 7.9e-06						
A12U C61A G63C C70U	3.89e-05 ± 1.1e-05			3.45e-05 ± 1.3e-05		4.79e-05 ± 1.7e-05	
A12C U45C	0.00344 ± 0.0011	7.28 ± 3	3e-05 ± 1.2e-05	5.84e-05 ± 2.1e-05	0.000289 ± 7.9e-05	0.000907 ± 0.00016	0.00194 ± 0.00049
A12C U49C	< 1e-05						< 1e-05
A12G C16U	0.00221 ± 0.00096			4.12e-05 ± 9.2e-06	0.000179 ± 2.1e-05	0.00036 ± 4.1e-05	0.00119 ± 0.0001
A12U C16A	0.00549 ± 0.00094	2.21 ± 0.52	9.36e-05 ± 1.5e-05		0.00128 ± 0.00027	0.00417 ± 0.00091	0.00413 ± 0.00074
A12U C16A A33U A36C G38A G62A U69A C71U	2.12e-05 ± 1.1e-06						
A12U C16A U56A	0.00194 ± 0.00074		0.000111 ± 2e-05		0.000636 ± 0.00015	0.00102 ± 0.00035	0.00247 ± 0.00041
A12U A36U C68A	1.17e-05 ± 3.8e-06						
A12U A33U	0.000444 ± 0.0001	3.79 ± 1.5			7.77e-05 ± 8.6e-06	0.00015 ± 1.6e-05	0.000348 ± 3.2e-05
